Assay results from patent publication US20150211000A1 (GLYCOFI, published 2015).

Target: T1, PCSK9 (Proprotein convertase subtilisin/kexin type 9) antigen, Alexa 647-conjugated (Pan troglodytes (Chimpanzee); Homo …, UniProt A8T644 31-152; Q8NBP7 153-692, Alexa 647-conjugated)
T1 construct: also called fluorophore-conjugated PCSK9 antigen; fluorophore-labeled PCSK-9 antigen
Experiment: flow cytometry / FACS of Fab-displaying Pichia pastoris labeled with Alexa 647-conjugated PCSK9

T1 sequence (A8T644 31-152 limits assumed, chain 1 of 2): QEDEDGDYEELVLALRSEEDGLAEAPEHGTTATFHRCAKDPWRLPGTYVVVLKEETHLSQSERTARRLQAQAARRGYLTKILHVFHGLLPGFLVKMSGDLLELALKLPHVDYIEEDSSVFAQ
T1 sequence (A8T644 other isoform, or with tags, fused parts or gaps limits assumed, chain 2 of 2): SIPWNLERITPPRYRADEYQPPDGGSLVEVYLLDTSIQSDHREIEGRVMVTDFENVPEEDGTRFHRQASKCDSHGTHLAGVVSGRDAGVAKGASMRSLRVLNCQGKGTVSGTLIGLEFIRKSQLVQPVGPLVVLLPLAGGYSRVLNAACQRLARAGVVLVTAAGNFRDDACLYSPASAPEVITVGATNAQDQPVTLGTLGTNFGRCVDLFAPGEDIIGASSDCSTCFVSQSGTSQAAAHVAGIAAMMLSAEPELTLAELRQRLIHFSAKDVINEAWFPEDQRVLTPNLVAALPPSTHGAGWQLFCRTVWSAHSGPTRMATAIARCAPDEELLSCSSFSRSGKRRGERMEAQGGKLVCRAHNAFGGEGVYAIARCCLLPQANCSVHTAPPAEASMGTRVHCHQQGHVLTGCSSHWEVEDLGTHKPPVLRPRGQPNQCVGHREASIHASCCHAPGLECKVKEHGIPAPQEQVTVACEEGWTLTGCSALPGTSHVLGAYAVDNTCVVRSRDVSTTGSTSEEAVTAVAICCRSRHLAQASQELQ

binding result: no binding
B1: anti-CD20 (Genmab) Fab fragment, heavy chain fused to GR1 coiled coil peptide, displayed on Pichia pastoris strain YGLY7761 (Fab, V domains shown)
VH: AVQLVESGGGLVQPGRSLRLSCAASGFTFGDYTMHWVRQAPGKGLEWVSGISWNSGSIGYADSVKGRFTISRDNAKNSLYLQMNSLRAEDTALYYCTKDNQYGSGSTYGLGVWGQGTLVTVSS
VL: EIVLTQSPATLSLSPGERATLSCRASQSVSSYLAWYQQKPGQAPRLLIYDASNRATGIPARFSGSGSGTDFTLTISSLEPEDFAVYYCQQRSNWPLTFGGGTKVEIKR
notes: also called α-CD20; anti-CD20 Fab fragment Genmab; not shown: linker and tags of vector pGLY3958 between CH1 and GR1
